From publication PMC7194921

Molecular target: SARS-CoV-2 N-NTD (WT) (SARS-CoV-2, UniProt P0DTC9 41-174)
Test: SPR

For AAGUUCGUUU (ssRNA) [viral RNA derived intergenic sequence], the Kd was 140 µM.
